Earlier results as cited in article PMC2888693.

Biological target: Tube DD (Drosophila melanogaster) (UniProt P22812)
Sequence of UniProt P22812 (P22812 27-152): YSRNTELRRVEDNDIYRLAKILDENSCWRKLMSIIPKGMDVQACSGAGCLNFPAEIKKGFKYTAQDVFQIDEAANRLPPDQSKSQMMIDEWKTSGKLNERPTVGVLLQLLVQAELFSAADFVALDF

- Kd: 500 nM
Substance: Pelle DD (from UniProt Q05652)
